US20220281949A1

Target: DR1-restricted TCR HA1.7
Assay: flow cytometry: HA1.7-transduced primary CD4+ T cells stained with PE wild-type DR1 dextramer and anti-CD4

Substance: wild-type DR1 dextramer specific to Flu-HA306-318 (peptide-MHC)
- percent of cells in the dextramer+ CD4+ quadrant: 30.4%
